B1: Ventral anterior homeobox 1, residues 102 to 157; numbered along this chain, Q5SQQ9 (parent)
chain: RTRTSFTAEQLYRLEMEFQRCQYVVGRERTELARQLNLSETQVKVWFQNRRTKQKK

Variants of: B1
Experiment: abundance fitness (aPCA) (normalised: wild type 0, dead -1); higher = more abundant; growth selection in yeast, the domain comes from the species named
Conditions: Homo sapiens

Abundance fitness of substitutions, site by site:
Q35: Y -0.414 | N -0.206 | W -0.304 | T -0.205 | G -0.182 | H -0.167 | C -0.08 | L -0.135 | M -0.087 | E -0.032 | K 0.093 | R -0.028 | D -0.005 | F -0.292 | A 0.052 | I -0.236 | S 0.037 | V -0.265
Q22: E 0.024 | L -0.437 | S -0.087 | V -0.324 | P -0.133 | A -0.033 | R -0.32 | D -0.081 | T -0.17 | Y -0.641 | F -0.585 | G 0.033 | N -0.285 | H -0.251 | W -0.383 | I -0.38 | K -0.103 | M -0.249
M16: V -0.09 | G -0.109 | K -0.301 | A -0.043 | R -0.233 | D 0.075 | T -0.076 | Y -0.173 | W -0.291 | P -1.12 | I -0.295 | Q 0.008 | F -0.285 | C -0.055 | S -0.027 | N -0.407
V25: Y -0.377 | K -0.18 | W -0.633 | N -0.326 | T -0.087 | H -0.011 | R -0.16 | A 0.042 | F -0.073 | Q 0.121 | G 0.003 | P -0.29 | I -0.226 | C 0.114 | M -0.396 | E 0.204 | S -0.071
R34: M -0.256 | D -0.203 | I -0.325 | P -0.907 | K -0.197 | L -0.273 | V -0.074 | C -0.395 | W -0.42 | A 0.179 | Q -0.361 | E -0.235 | S -0.061 | Y -0.655
T30: G -0.215 | E 0.018 | D -0.468 | R -0.429 | W -0.117 | N -0.097 | P -0.677 | I -0.211 | Q -0.329 | M -0.225 | V -0.064 | K -0.19 | H -0.261 | A -0.102 | L -0.427
E28: S -0.338 | R -0.596 | I -0.657 | M -0.446 | V -0.419 | P -0.171 | K -0.78 | A -0.318 | Q -0.394 | C -0.412 | L -0.369 | Y -0.661 | G -0.39 | T -0.247 | N -0.459 | W -0.483 | D -0.077 | F -0.513 | H -0.318
L14: T -0.843 | W -0.747 | S -0.906 | V -0.619 | M -0.368
L32: K -0.641 | Q -0.959 | A -0.791 | G -1.21 | C -0.777 | W -1.04 | R -0.826 | V -0.542 | M -0.314
L36: S -0.687 | G -0.916 | F -0.741 | H -0.569 | M -0.184 | R -0.881 | N -0.935 | P -0.711 | E -0.983 | D -0.643 | T -0.264 | C -0.165 | K -1.18 | Q -0.545 | A -0.601
R20: D 0.149 | G -0.409 | Y -0.436 | V -0.162 | N 0.251 | W -0.632 | Q -0.226 | K -0.428 | T -0.305 | F -0.47 | L -0.223 | S -0.04 | C -0.303 | E -0.261 | I -0.386 | M -0.001
G26: P -0.208 | S -0.151 | D -0.153 | E -0.249 | Q -0.23
